From article PMC7435230, “Selection of a Full Agonist Combinatorial Antibody that Rescues Leptin Deficiency In Vivo” (Advanced Science, 2020)
Changes are numbered by the printed parent chain. Each block holds one binder with its values, some of them ahead of it.

Experiments:
[1] = target: T1, mouse leptin receptor tagged with eYFP, on HEK293 cells (Mus musculus, UniProt P48356); assay: immunostaining of cells or tissue; transiently transfected HEK293 cells expressing LepR-eYFP, fixed in 4% PFA; primary antibodies 5 ug/mL at 4 C overnight; Alexa Fluor 555 goat anti-human IgG; details: one partner purified
T1 construct: leptin receptor (LepR), mouse; also called mLepR-eYFP; mLepR; source: HEK293, transiently transfected, on cells (fixed); not shown: eYFP, C-terminal, kept

[2] = target: T2, extracellular domain of human leptin receptor with C-terminal human-Fc tag (human, UniProt P48357 22-839); assay: ELISA; competition with coated leptin, 20 nM hLepR-ECD-Fc
T2 chain: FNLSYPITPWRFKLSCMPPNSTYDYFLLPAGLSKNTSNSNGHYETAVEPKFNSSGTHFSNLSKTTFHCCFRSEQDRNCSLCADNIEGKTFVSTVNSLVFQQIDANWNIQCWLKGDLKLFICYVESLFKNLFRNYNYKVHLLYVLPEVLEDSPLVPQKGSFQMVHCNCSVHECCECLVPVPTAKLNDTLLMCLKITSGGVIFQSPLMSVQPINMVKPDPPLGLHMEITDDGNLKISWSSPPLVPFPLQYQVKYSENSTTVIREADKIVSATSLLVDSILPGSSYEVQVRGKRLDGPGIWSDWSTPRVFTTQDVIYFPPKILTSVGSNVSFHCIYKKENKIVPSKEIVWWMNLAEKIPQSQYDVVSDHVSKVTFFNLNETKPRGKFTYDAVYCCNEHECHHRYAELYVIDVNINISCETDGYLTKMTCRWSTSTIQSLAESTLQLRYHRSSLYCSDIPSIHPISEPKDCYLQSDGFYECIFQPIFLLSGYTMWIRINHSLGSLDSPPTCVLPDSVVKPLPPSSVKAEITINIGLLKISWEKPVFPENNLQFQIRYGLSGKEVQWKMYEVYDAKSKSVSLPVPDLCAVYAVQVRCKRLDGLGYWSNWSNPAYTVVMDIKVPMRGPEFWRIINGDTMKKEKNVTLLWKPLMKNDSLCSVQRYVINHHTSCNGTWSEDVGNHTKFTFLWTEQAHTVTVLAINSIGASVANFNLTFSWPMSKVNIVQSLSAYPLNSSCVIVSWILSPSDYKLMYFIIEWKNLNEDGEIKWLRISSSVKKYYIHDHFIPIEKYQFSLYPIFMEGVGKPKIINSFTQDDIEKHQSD

[3] = target: human leptin receptor tagged with eYFP, on HEK293 cells (Homo sapiens, UniProt P48357); assay: cell-based or functional assay
[4] = target: T3, mLepR in mouse brain tissue sections (paraventricular nucleus of the hypothalamus) (Mus musculus, C57BL/6 (wild type, …, UniProt P48356)); assay: immunostaining of cells or tissue; 30 um brain sections of wild type, ob/ob and db/db mice, fixed in 4% PFA; staining as for cells; paraventricular nucleus of the hypothalamus; details: one partner purified
T3 construct: leptin receptor (LepR), mouse, endogenous in hypothalamus; Fixed tissue sections; also called LepR in tissue; source: endogenous, brain sections of wild type, ob/ob and db/db C57BL/6 mice

[5] = target: T4, extracellular domain of human leptin receptor with C-terminal 6xHis tag (human, UniProt P48357); assay: SPR; Biacore T200; LepR-ECD with His tag immobilised on CM5 chip by amine coupling; leptin-Fc and scFv-Fc antibodies in PBS pH 7.4, 1:2 serial dilutions, five concentrations, as analytes; 1:1 binding model; details: both partners purified
T4 construct: leptin receptor (LepR), human, extracellular domain; also called hLepR-ECD; hLepR-ECD-His; source: HEK293F, purified from supernatant (HisTrap FF Crude); not shown: 6xHis, C-terminal, kept

[6] = target: T5, extracellular domain of mouse leptin receptor with C-terminal 6xHis tag (mouse, UniProt P48356); assay: as above; details: both partners purified
T5 construct: leptin receptor (LepR), mouse, extracellular domain; also called mLepR-ECD; mLepR-ECD-His; source: HEK293F, purified from supernatant (HisTrap FF Crude); not shown: 6xHis, C-terminal, kept
T5 sequence (P48356 22-839): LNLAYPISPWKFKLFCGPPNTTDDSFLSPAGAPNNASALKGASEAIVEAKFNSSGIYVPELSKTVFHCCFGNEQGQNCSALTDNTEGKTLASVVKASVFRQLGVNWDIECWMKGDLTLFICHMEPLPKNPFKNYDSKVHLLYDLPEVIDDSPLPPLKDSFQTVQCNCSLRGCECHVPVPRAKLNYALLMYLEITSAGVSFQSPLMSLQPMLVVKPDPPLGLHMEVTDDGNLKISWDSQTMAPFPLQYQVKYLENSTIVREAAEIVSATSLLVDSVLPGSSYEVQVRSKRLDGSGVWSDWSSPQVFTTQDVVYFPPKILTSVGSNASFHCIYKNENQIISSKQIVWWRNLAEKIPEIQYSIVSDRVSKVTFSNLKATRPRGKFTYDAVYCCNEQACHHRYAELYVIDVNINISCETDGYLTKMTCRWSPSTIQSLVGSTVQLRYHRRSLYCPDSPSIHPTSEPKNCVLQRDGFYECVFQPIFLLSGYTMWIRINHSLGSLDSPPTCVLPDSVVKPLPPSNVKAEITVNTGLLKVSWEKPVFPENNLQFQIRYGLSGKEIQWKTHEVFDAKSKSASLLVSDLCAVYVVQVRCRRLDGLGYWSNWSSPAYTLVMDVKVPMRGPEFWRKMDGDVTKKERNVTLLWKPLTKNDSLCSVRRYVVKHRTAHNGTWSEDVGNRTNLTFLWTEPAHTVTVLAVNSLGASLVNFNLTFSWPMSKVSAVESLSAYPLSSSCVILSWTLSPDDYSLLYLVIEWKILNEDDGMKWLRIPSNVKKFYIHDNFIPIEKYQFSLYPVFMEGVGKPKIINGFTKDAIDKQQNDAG

T1 sequence (P48356 22-1162): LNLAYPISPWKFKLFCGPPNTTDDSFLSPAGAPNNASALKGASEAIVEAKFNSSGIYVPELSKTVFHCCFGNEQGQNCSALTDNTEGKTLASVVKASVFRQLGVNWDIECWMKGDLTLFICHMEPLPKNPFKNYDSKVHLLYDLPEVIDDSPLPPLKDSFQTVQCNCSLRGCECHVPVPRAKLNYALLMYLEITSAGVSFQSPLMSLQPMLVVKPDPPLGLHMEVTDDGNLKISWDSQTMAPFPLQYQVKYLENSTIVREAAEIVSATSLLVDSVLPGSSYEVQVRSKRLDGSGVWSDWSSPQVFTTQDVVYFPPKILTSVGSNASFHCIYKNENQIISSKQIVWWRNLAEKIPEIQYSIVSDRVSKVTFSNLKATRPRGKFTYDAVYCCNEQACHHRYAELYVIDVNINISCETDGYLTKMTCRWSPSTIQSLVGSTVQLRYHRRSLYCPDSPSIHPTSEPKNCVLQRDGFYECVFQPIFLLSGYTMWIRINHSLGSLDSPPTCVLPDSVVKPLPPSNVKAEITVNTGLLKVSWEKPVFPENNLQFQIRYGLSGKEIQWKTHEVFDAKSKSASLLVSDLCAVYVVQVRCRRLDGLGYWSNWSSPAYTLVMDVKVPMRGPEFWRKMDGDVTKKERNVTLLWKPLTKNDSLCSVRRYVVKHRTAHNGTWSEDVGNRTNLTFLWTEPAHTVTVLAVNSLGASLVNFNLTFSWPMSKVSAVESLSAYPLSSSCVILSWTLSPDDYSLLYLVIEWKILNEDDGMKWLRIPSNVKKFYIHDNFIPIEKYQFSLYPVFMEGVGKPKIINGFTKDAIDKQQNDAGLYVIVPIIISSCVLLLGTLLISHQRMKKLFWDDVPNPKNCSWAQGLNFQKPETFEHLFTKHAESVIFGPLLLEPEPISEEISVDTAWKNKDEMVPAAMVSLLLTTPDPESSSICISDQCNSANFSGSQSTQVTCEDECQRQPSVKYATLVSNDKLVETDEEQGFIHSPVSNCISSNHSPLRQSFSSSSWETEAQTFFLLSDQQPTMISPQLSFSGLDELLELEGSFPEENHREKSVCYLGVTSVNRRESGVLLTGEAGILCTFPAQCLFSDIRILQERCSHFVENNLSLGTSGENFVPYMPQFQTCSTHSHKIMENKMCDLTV
T3 sequence (P48356 22-839): as the sequence (P48356 22-839) above

binding result [1]: no binding (tested: 5 ug/mL) | IC50 [2]: 40 nM | EC50, hLepR-luciferase (SIE luciferase reporter of STAT3 phosphorylation, HEK293) [3]: 3.2 nM | binding result [4]: no binding | Kd [5]: 7.5 nM | koff [5]: 0.052 s⁻¹ | kon [5]: 6.9e+06 M⁻¹ s⁻¹
B1: single-chain combinatorial antibody Ab06 (scFv-Fc) (scFv, V domains shown)
VH: QVQLVESGGGVVQPGRSLRLSCAASGFTFSSYGMHWVRQAPGKGLEWVAVISYDGSNKYYADSVKGRFTISRDNSKNTLYLQMNSLRAEDTAVYYCAKSLRNSFDYWGQGTLVTVSS
VL: EIVLTQSPGTLSLSPGERATLSCRASQSVSSNYLAWYQQKPGQAPRLLIYGASSRPTGIPDRFSGSGSGTDFTLTISRLEPEDFAVYYCQQYAASPLTFGGGTKLEIK
notes: identical to Ab11 except four residues in CDR3H; source: HEK293F, purified from supernatant (HiTrap Protein A)

Kd [6]: 200 nM
B2: single-chain combinatorial antibody Ab11 (scFv-Fc) (scFv, V domains shown)
VH: B1 VH with S99G, L100Y, R101E, S103Y
VL: B1 VL
notes: CDR3H holds the motif ENYF; source: HEK293F, purified from supernatant (HiTrap Protein A)
